Laboratory results taken from patent US20190241657A1.

Target: human CD3epsilon/delta-Fc fusion protein (heterodimer of CD3epsilon and CD3delta extracellular domains fused to human IgG Fc) (human) (UniProt P04234)
Assay: Biacore

human CD3epsilon/delta-Fc fusion protein (heterodimer of CD3epsilon and CD3delta extracellular domains fused to human IgG Fc) (human), sequence (chain, as listed by the source mutant, chain 1 of 2): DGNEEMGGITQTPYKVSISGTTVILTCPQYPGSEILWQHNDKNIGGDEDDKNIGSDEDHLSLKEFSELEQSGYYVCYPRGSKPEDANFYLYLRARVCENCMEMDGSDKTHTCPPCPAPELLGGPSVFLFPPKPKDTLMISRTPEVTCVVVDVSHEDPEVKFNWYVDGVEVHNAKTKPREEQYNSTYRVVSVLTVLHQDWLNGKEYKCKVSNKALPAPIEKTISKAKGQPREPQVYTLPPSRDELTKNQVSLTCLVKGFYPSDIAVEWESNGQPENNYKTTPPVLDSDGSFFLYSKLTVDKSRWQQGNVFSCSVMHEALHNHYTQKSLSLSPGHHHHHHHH
human CD3epsilon/delta-Fc fusion protein (heterodimer of CD3epsilon and CD3delta extracellular domains fused to human IgG Fc) (human), sequence (P04234 22-105, stated change not applied, chain 2 of 2): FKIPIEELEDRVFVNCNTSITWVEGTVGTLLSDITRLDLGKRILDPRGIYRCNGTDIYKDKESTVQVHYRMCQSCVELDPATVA

Kd: 9 nM
Substance: Single chain antibody DART format MGD006 (CD123xCD3 bi-specific diabody) (bispecific antibody)
